According to paper PMC8024323, “Drosophila TNFRs Grindelwald and Wengen bind Eiger with different affinities and promote distinct cellular functions” (Nature Communications, 2021):
Where a chain is given by its changes, count along the chain named.

T1: Grnd^30–97 Glu52Ala (Drosophila melanogaster, UniProt Q9VJ83 30-97, Glu52Ala)
T1 sequence: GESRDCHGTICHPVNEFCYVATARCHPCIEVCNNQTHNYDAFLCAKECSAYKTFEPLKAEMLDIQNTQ

T2: Grnd^30–97 Asn67Ala (Drosophila melanogaster, UniProt Q9VJ83 30-97, Asn67Ala)
T2 sequence: T1 sequence with A23E, N38A

T3: Grnd^30–97 His66Ala (Drosophila melanogaster, UniProt Q9VJ83 30-97, His66Ala)
T3 sequence: T1 sequence with A23E, H37A

T4: Strep-Egr^146–409 Asn333Ala (Drosophila melanogaster, UniProt Q8MUJ1-2 146-409, Asn333 with Ala)
T4 construct: also called substitution of the Egr glycosylation site Asn333 with Ala; source: mutation by QuikChange
T4 sequence (looked up): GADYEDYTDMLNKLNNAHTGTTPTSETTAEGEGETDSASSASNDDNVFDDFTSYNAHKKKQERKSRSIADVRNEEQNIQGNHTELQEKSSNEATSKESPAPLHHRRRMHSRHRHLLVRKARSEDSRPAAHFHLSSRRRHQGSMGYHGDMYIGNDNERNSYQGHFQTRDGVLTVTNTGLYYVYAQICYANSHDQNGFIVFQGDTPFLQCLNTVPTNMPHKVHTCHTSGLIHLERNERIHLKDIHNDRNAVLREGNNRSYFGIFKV

T5: Strep-Egr^146–409 (Drosophila melanogaster, UniProt Q8MUJ1-2 146-409)
T5 construct: probably SHuffle cells as for the His6 construct
T5 sequence (looked up): T4 sequence (looked up) with A188N

B1: Egr^146–409 (extracellular portion of Eiger, His6-tagged) (domain or fragment, Drosophila melanogaster, UniProt Q8MUJ1-2 146-409, looked up)
chain: T4 sequence (looked up) with A188N
notes: Cloned in a pET43 vector; Trimer by static light scattering; also called Egr/TNF; Egr extracellular domain; source: E. coli SHuffle cells, purified (HiTrap chelating Ni column, Superdex-200 SEC)
B2: Grnd^30–97 (extracellular domain of Grindelwald) (domain or fragment, Drosophila melanogaster, UniProt Q9VJ83 30-97, looked up)
chain: T1 sequence with A23E
notes: Grindelwald (Grnd), Drosophila melanogaster, extracellular domain, residues 30-97; pETM14 vector; His6-tag removed with PreScission protease; Monomer by static light scattering; also called wild-type Grnd^30–97; source: E. coli SHuffle B cells (NEB), purified (Ni HiTrap, PreScission, Resource-Q); not shown: His6, N-terminal, cleaved
B3: Grnd^30–97 Asn67Ala (domain or fragment, Drosophila melanogaster, UniProt Q9VJ83 30-97, looked up)
chain: T1 sequence with A23E, N38A
notes: Grindelwald (Grnd), Drosophila melanogaster, extracellular domain, residues 30-97; also called Asn67Ala^Grnd; Grnd-Asn67Ala; source: E. coli SHuffle B cells, purified (as Grnd^30–97); mutation by QuikChange; not shown: His6, N-terminal, cleaved
B4: Grnd^30–97 Glu52Ala (domain or fragment, Drosophila melanogaster, UniProt Q9VJ83 30-97, looked up)
chain: T1 sequence
notes: Grindelwald (Grnd), Drosophila melanogaster, extracellular domain, residues 30-97; also called Glu52Ala^Grnd; Grnd-Glu52Ala; source: E. coli SHuffle B cells, purified (as Grnd^30–97); mutation by QuikChange; not shown: His6, N-terminal, cleaved
B5: Grnd^30–97 His66Ala (domain or fragment, Drosophila melanogaster, UniProt Q9VJ83 30-97, looked up)
chain: T1 sequence with A23E, H37A
notes: Grindelwald (Grnd), Drosophila melanogaster, extracellular domain, residues 30-97; also called His66Ala^Grnd; Grnd-His66Ala; source: E. coli SHuffle B cells, purified (as Grnd^30–97); mutation by QuikChange; not shown: His6, N-terminal, cleaved
B6: Grnd^30–81 (tryptic fragment of the extracellular domain of Grindelwald) (domain or fragment, Drosophila melanogaster, UniProt Q9VJ83 30-81, looked up)
chain: GESRDCHGTICHPVNEFCYVATERCHPCIEVCNNQTHNYDAFLCAKECSAYK
notes: Grindelwald (Grnd), Drosophila melanogaster, residues 30-81; limits assigned by mass spectrometry; models hold residues 34-81 (free) and 31-81 (complex); also called Grnd-ECD; Grnd-CRD
B7: Egr^269–409 (TNF-homology domain of Eiger, tryptic fragment) (domain or fragment, Drosophila melanogaster, UniProt Q8MUJ1-2 269-409, looked up)
chain: DSRPAAHFHLSSRRRHQGSMGYHGDMYIGNDNERNSYQGHFQTRDGVLTVTNTGLYYVYAQICYNNSHDQNGFIVFQGDTPFLQCLNTVPTNMPHKVHTCHTSGLIHLERNERIHLKDIHNDRNAVLREGNNRSYFGIFKV
notes: Trimer in the crystal (threefold crystallographic symmetry); also called Egr-TNF; TNF domain of Egr

Experiments:
[1] = molecular target: Egr^146–409 (extracellular portion of Eiger, His6-tagged) (Drosophila melanogaster) (UniProt Q8MUJ1); assay: ITC; MicroCal PEAQ-ITC, 25 °C, 0.02 M Tris-HCl pH 8.0, 0.3 M NaCl; Grnd^30–97 at 100–340 μM titrated into 8 μM Egr^146–409; Wgn^78–201 at 4.5 mM titrated into 410 μM Egr^146–409; single-site fit
Grnd^30–97 Glu52Ala = molecular target: T1, Grnd^30–97 Glu52Ala; assay: ITC
Grnd^30–97 Asn67Ala = molecular target: T2, Grnd^30–97 Asn67Ala; assay: ITC
Grnd^30–97 His66Ala = molecular target: T3, Grnd^30–97 His66Ala; assay: ITC
[2] = molecular target: the molecule itself; assay: SEC-MALS; static light scattering, Viscotek GPCmax/TDA with a Superdex 200-10/300 increase column, 0.02 M Tris-HCl pH 8.0, 0.3 M NaCl, 5% glycerol; about 75 μL at about 2 mg/mL (Egr alone and the two complexes)
[3] = molecular target: B1; assay: ITC; MicroCal PEAQ-ITC, 25 °C, 0.02 M Tris-HCl pH 8.0, 0.3 M NaCl; Grnd^30–97 at 100–340 μM titrated into 8 μM Egr^146–409; Wgn^78–201 at 4.5 mM titrated into 410 μM Egr^146–409; single-site fit; conditions: both partners purified
[4] = molecular target: T4, Strep-Egr^146–409 Asn333Ala; assay: pull-down; 2 μM strep-tagged Egr^146–409 adsorbed on Strep-tactin beads, 10 μM Grnd^30–97 in solution, 1 h at 4 °C, 0.01 M Hepes pH 7.5, 0.1 M NaCl, 5% glycerol, 0.05% Tween, 0.5 mM EDTA; Coomassie staining; conditions: both partners purified
Strep-Egr^146–409 = molecular target: T5, Strep-Egr^146–409; assay: as above; conditions: both partners purified
[5] = molecular target: B7; assay: SEC; 30 μM Egr^146–409 incubated with Grnd^30–97 in a 1:1.3 molar ratio, treated with trypsin, loaded on a Superdex-5/150 column; fractions on Coomassie SDS-PAGE; conditions: both partners purified
[6] = molecular target: the molecule itself; assay: crystal structure; Egr^269–409:Grnd^30–81 complex, 2.02 Å, space group P321, one 1:1 complex per asymmetric unit, 3:3 hetero-hexamer by the crystallographic threefold axis

## Wgn^78–201 (whole extracellular domain of Wengen) (from UniProt Q9VWS4 78-201) (domain or fragment)
[1]
  Kd: 12 µM

## B1
Grnd^30–97 Glu52Ala
  Kd: 1.3 µM
Grnd^30–97 Asn67Ala
  Kd: 4.5 µM
Grnd^30–97 His66Ala
  Kd: 4.8 µM
[2]
  stoichiometry N: 3

## B2
[3]
  Kd: ~0.03 µM
[4]
  binding result: binds

## B3
[3]
  binding result: binds
Strep-Egr^146–409
  binding result: binds

## B4
[3]
  binding result: binds
Strep-Egr^146–409
  binding result: binds

## B5
[3]
  binding result: binds
Strep-Egr^146–409
  binding result: binds

## B6
[5]
  binding result: binds

## B7
[6]
  stoichiometry N: 3
